Experimental data as given in patent publication US20100184663A1 (UNIVERSITY OF UTAH RESEARCH FOUNDATION, published 2010).
Bridge positions count the residues as written; N and C are the ends. Square brackets hold non-standard residues; d marks the D form. Ends that are not written are not given here. I, II: the chains in the order shown.

B1: PIE7 (peptide)
peptide: Ac-[dK]G[dA][dC][dD][dY][dP][dE][dW][dQ][dW][dL][dC][dA][dA]-NH2
modifications: disulfide 4-13 (inferred)
B2: C5C(PIE7-GK)3 (peptide)
peptide 1: G[dA][dC][dD][dY][dP][dE][dW][dQ][dW][dL][dC][dA][dA]G[dK]
peptide 2: G[dA][dC][dD][dY][dP][dE][dW][dQ][dW][dL][dC][dA][dA]G[dK][dK]
modifications: disulfide I:3-I:12, II:3-II:12 (inferred); also: trimer: two chain 1 copies joined via C-terminal Lys by PEG5 spacers to the C-terminal Lys of central chain 2

Columns and labels:
Assay in all cases: cell-based or functional assay
HIV-1 gp41 (HXB2 strain) [1] = target: T1, HIV-1 gp41 (HXB2 strain) (HIV-1 HXB2, UniProt P04578 512-856)
HIV-1 gp41 (JRFL strain) [2] = target: HIV-1 gp41 (JRFL strain) (HIV-1 JRFL)
HIV-1 gp41 (HXB2 strain) [3] = target: T1, HIV-1 gp41 (HXB2 strain); remark: listed apart in the source
HIV-1 gp41 (JRFL strain) [4] = target: HIV-1 gp41 (JRFL strain) (HIV-1 JRFL); remark: listed apart in the source
HIV-1 gp41 (HXB2 strain) [5] = target: T1, HIV-1 gp41 (HXB2 strain); remark: listed apart in the source

Binder | IC50 (HXB2), single-cycle viral infectivity assay (HIV-1 gp41 (HXB2 strain) [1]) [nM] | IC50 (JRFL), viral entry (HIV-1 gp41 (JRFL strain) [2]) [nM] | fold reduction in potency against JRFL compared with HXB2 (HIV-1 gp41 (JRFL strain) [2]) [fold] | fold potency against D10-p5, viral entry (HXB2) (HIV-1 gp41 (HXB2 strain) [3]) [fold] | IC50 (JRFL), pseudovirion entry (HIV-1 gp41 (JRFL strain) [4]) [nM] | IC50 (HXB2), pseudovirion entry (HIV-1 gp41 (HXB2 strain) [5]) [nM] | fold difference in potency against JRFL between C5C-PIE7-trimer and N9N-PIE7-trimer (HIV-1 gp41 (JRFL strain) [2]) [fold]
B1 | 620 | 24400 | ~40 | ~15 | 24000 | 620 | 
B2 |  |  |  |  | 6.73 | 0.13 | ~35
